In publication PMC3123277, “Engineering Klebsiella sp. 601 multicopper oxidase enhances the catalytic efficiency towards phenolic substrates” (BMC Biochemistry, 2011):

What was measured:
[1] = biological target: T1, Klebsiella sp. 601 MCO (multicopper oxidase) (Klebsiella sp. 601, UniProt B0FMT2); test: spectrophotometric oxidation assay, Lineweaver-Burk; assay type: biochemical; conditions: pH 5.0, 50 mM acetate, 37°C, 0.2 mM CuSO4; read-out: Wild-type
T1 sequence (B0FMT2 29-536): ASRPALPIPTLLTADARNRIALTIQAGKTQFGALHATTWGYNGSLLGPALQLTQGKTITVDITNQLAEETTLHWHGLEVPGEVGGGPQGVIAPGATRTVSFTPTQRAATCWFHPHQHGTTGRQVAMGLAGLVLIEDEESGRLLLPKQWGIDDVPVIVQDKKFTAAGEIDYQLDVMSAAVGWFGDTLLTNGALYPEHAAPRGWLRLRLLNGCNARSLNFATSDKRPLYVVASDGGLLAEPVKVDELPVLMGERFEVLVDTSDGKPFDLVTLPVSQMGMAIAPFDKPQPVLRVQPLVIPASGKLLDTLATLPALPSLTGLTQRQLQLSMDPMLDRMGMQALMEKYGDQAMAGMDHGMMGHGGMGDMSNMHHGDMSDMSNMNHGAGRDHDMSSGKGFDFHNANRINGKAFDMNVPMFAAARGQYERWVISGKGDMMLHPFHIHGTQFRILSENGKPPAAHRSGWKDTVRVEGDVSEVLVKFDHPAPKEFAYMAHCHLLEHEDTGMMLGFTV
Excerpt: (§1) spectrophotometric oxidation assay, Lineweaver-Burk on Klebsiella sp. 601 MCO (multicopper oxidase)

[2] = biological target: Klebsiella sp. 601 MCO (multicopper oxidase) (Klebsiella sp. 601, UniProt B0FMT2, E106F); conditions: read-out: E106F; pH 5.0, 50 mM acetate, 37°C, 0.2 mM CuSO4
Excerpt: as §1

[3] = biological target: Klebsiella sp. 601 MCO (multicopper oxidase) (Klebsiella sp. 601, UniProt B0FMT2, R361G/M362G/L367G/M368G/E369P/M376K/M379P); conditions: read-out: α351-380M; pH 5.0, 50 mM acetate, 37°C, 0.2 mM CuSO4
Excerpt: as §1

[4] = test system: CCn1c(=NN=c2sc3cc(S(=O)(=O)O)ccc3n2CC)sc2cc(S(=O)(=O)O)ccc21; test: purified protein; conditions: pH 3.6, 50 mM acetic acid-sodium acetate, 37°C, 0.2 mM CuSO4
[5] = substrate: COc1cc(C=NN=Cc2cc(OC)c(O)c(OC)c2)cc(OC)c1O; test: spectrophotometric oxidation assay, Lineweaver-Burk; assay type: biochemical, Klebsiella sp. 601; conditions: pH 6.8, 50 mM phosphate, 37°C, 0.2 mM CuSO4, pH 6.8
Excerpt: as §1

[6] = substrate: CCn1c(=NN=c2sc3cc(S(=O)(=O)O)ccc3n2CC)sc2cc(S(=O)(=O)O)ccc21; test: as above; assay type: biochemical, Klebsiella sp. 601; conditions: pH 3.0, 50 mM acetic acid-sodium acetate, 37°C, 0.2 mM CuSO4, pH 3.0
Excerpt: as §1

Q: With `COc1cccc(OC)c1O` [DMP] as the molecule, how does the Km [1] read?
A: 2850 µM

Q: And the Km [2]?
A: 1180 µM

Q: What about the Km [3] of the same molecule?
A: 639 ± 17 µM

Q: With “Klebsiella sp. 601 MCO (multicopper oxidase) (Klebsiella sp. 601; E106F)” as the molecule, how does the Km [4] read?
A: 159 ± 1.0 µM

Q: And the kcat/Km [4]?
A: 2.05e+08 M⁻¹ s⁻¹

Q: “Klebsiella sp. 601 MCO (multicopper oxidase) (Klebsiella sp. 601; E369P/L367G/M362G/M368G/M376K/M379P/R361G)” was tested. Which Km [4] did it give?
A: 284 ± 6.2 µM

B1: Klebsiella sp. 601 MCO (multicopper oxidase) (Klebsiella sp. 601) (protein)
chain: T1 sequence (B0FMT2 29-536)
Q: For B1, which Km [5] is on record?
A: 11.67 ± 0.2 µM

Q: What about the kcat [5] of the same molecule?
A: 10.8 ± 0.1 s⁻¹

Q: What about the kcat/Km [5] of the same molecule?
A: 930000 M⁻¹ s⁻¹

Q: What about the Km [6] of the same molecule?
A: 539 ± 5.0 µM

Q: What about the kcat/Km [6] of the same molecule?
A: 1.27e+08 M⁻¹ s⁻¹
